In patent US20150299764A1, “IMMOBILISED CYCLIN-DEPENDENT KINASE 4 FUSION PROTEINS AND USES THEREOF” (UNIVERSITE LIBRE DE BRUXELLES, priority 2012, published 2015):
One block for each molecule: values may come before it.

Assays:
[1] = target: T1, CDK7AS (mutated version of CDK7) in HCT116K7AS cells (Homo sapiens, UniProt P50613, D92E/F91G); assay: Rb kinase activity of streptavidin-immobilized Avi-tagged cyclin D3/CDK4 fusion from HCT116K7AS cells treated with serum and CDK7AS inhibitor; assay type: cell-based
T1 construct: These cells express only a mutated version of CDK7 (CDK7AS); endogenous in cells; host or cells: HCT116K7AS cells transduced with the Avi-tagged cyclin D3/CDK4 reporter (HCT116K7AS-V26)
T1 sequence (P50613 whole entry F91G/D92E, the tested form may be a part): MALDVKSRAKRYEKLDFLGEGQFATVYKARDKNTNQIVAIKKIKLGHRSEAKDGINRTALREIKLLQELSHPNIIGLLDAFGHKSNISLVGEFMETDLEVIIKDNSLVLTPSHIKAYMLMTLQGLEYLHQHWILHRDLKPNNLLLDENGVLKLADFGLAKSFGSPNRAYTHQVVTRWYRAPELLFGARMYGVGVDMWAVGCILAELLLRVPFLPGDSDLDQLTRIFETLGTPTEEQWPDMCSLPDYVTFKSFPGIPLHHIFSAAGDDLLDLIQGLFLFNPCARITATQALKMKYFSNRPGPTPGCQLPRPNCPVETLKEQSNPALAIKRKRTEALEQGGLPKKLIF
T1 sequence (P51946 whole entry partner, the tested form may be a part): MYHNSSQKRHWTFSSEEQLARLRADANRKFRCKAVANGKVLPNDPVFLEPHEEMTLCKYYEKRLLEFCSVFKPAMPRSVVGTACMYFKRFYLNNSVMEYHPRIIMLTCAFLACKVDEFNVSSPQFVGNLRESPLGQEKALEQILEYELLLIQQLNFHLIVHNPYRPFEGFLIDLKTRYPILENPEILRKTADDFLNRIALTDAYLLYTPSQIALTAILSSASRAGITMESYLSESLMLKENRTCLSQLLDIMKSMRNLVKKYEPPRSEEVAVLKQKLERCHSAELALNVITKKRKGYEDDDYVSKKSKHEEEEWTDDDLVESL
T1 sequence (P51948 whole entry partner, the tested form may be a part): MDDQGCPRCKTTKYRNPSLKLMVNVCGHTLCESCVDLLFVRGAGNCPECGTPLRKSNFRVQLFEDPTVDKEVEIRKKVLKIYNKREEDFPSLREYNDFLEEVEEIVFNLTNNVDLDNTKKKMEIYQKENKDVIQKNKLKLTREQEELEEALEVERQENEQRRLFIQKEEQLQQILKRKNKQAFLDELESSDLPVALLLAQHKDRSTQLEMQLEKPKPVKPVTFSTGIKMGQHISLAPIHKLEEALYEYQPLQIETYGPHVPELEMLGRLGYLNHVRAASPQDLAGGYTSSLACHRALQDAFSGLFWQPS
Protocol: In order to verify if transgenes expressed in HCT116K7AS cells after transduction with the vectors described in Example 8 could be immobilized on streptavidin-coated sepharose beads and were enzymatically active, the HCT116K7AS cells expressing the cyclin D3/CDK4 fusion protein described in the Example 14 were cultivated in 6 cm Petri dishes with 10 ml DMEM medium supplemented with 10% serum, Sodium pyruvate (1 mM), Penicillin (50 U/ml) and Streptomycin (50 μg/ml). These cells express only a mutated version of CDK7 (CDK7AS) inhibitable by bulky ATP analogs such as 1-NMPP1 (Santa Cruz). The cells were rendered quiescent by incubating them for three days in DMEM without serum, but supplemented with biotin (0.1 mM), Sodium pyruvate (1 mM), Penicillin (50 U/ml) and Streptomycin (50 μg/ml). Cells were stimulated to proliferate by adding 10% serum for 5 or 16 hours in the continuous presence of biotin (0.1 mM). As indicated, vehicle (DMSO) or CDK7AS inhibitor (1-NMPP1) were added together with serum for the same time or for an additional pulse of 1 hour. […]
The pRb kinase assay was performed on the cellular extract bound to the streptavidin-coated sepharose beads as described previously (Coulonval et al., supra). […] The phosphorylation on T826 of the pRb fragment was detected using a phospho-specific anti-pRb (T826) antibody (Epitomics). […]

[2] = tested on: 48-kDa fragment (amino acid 773-928) of pRb; assay: pRb kinase assay on HEK293T cell extract bound to streptavidin-coated sepharose beads; assay type: biochemical; conditions: transiently transfected HEK293T cells, P-Rb T826 immunoblot
Protocol: In order to verify if the transgenes expressed in HEK293T cells after transient transfection could be immobilized on streptavidin-coated sepharose bead and were enzymatically active, HEK293T cells were cultivated and transfected with the indicated plasmids as described in Example 12.
After transfection, cells were washed with PBS and lysed on ice in 1 ml NP-40 lysis buffer as described in Example 11. The homogenized (glass/glass) cellular lysate was sonicated 3 times and stored at −20° C. Equal amount of protein from the defrozen lysates were then incubated for 3 h at 4° C. under slight shaking with 5 μl of streptavidin-coated sepharose beads (GE Healthcare) which had been prewashed three times with NP-40 lysis buffer without inhibitors. After 3 h, beads bound with transgene are washed three times with cold NP-40 lysis buffer without inhibitors before enzymatic activities are measured.
(§1) The pRb kinase assay was performed on the cellular extract bound to the streptavidin-coated sepharose beads as described previously (Coulonval et al., 2003, Exp. Cell Res., 291, 135-149). […] Proteins were resolved by SDS-PAGE and transferred on PVDF membranes (Perkin Elmer) before the phosphorylation on T826 of the pRb fragment was detected using the phosphor-specific pRb (T826) antibody (Thermo Fisher). […]
The pRb kinase assay was performed on the cellular extract bound to the streptavidin-coated sepharose beads (GE Healthcare) as described previously (Coulonval et al., 2003, Exp. Cell Res., 291, 135-149). […] Proteins were resolved by SDS-PAGE and transferred on low fluorescence PVDF membranes (Millipore) before the phosphorylation on T826 of the pRb fragment was detected using a phospho-specific rabbit anti-pRb (T826) antibody (Epitomics). Total GST-Rb load of the membranes was quantitated using the mouse anti-GST antibody (Pierce). […]

[3] = tested on: 48-kDa fragment (aa 773-928) of pRb; assay: pRb kinase assay on MCF7 cell extract bound to streptavidin-coated sepharose beads; assay type: biochemical
Protocol: In order to verify if transgenes expressed in MCF7 cells after transduction with the vectors described in Example 8 could be immobilized on streptavidin-coated sepharose bead and were enzymatically active, the MCF7 cells expressing the luciferase or the cyclin D3/CDK4 fusion protein described in the Example 14 were cultivated in 10 cm Petri dishes with 10 ml DMEM medium supplemented with 5% serum, insulin 6 ng/ml, NEAA (Gibco) 0.1 mM, Sodium pyruvate (1 mM), Penicillin (50 U/ml) and Streptomycin (50 μg/ml). The cells were rendered quiescent by incubating them for three days in phenol-free DMEM without serum and insulin, but supplemented with biotin (0.1 mM), NEAA (0.1 mM, Gibco), Sodium pyruvate (1 mM), Penicillin (50 U/ml) and Streptomycin (50 μg/ml). During the last 24 hours, fulvestrant (10 nM) was added to the culture to block estrogen receptor action. Cells were stimulated to proliferate by adding 5% serum, 6 ng/ml insulin and 100 nM β-estradiol in the culture medium for 16 hours in the continuous presence of biotin (0.1 mM). At the end of the culture, cells were washed with PBS and lysed on ice in 1 ml NP-40 lysis buffer as described in Example 10. The homogenized (glass/glass) cellular lysate was sonicated 3 times and stored at −20° C. Equal amounts of protein from the defrozen lysate were then incubated for 3 h at 4° C. under slight shaking with 5 μl of streptavidin-coated sepharose beads which had been prewashed three times with NP-40 lysis buffer without inhibitors. After 3 h, beads bound with transgene were washed three times with cold NP-40 lysis buffer without inhibitors before enzymatic activities were measured.
as §1, with “supra).” for “2003, Exp. Cell Res., 291, 135-149).”, “phospho-specific anti-pRb” for “phosphor-specific pRb”

- serum stimulation of Rb kinase activity of the biotinylatable Cyclin D3/CDK4 fusion ([1]; inhibitor added during the last hour of 17 hours serum stimulation, HCT116K7AS (FIG. 12)): severely impaired
- serum induction of Rb kinase activity of the biotinylatable Cyclin D3/CDK4 fusion ([1]; inhibitor present together with serum for 5 hours, HCT116K7AS, P-Rb T826 immunoblot (FIG. 12)): prevented
Molecule: CC(C)(C)n1nc(Cc2cccc3ccccc23)c2c(N)ncnc21 [1-NMPP1]

B1: D3L2K4: cyclin D3 and CDK4 connected by the linker L2, SEQ ID NO. 10 (protein)
chain: MELLCCEGTRHAPRAGPDPRLLGDQRVLQSLLRLEERYVPRASYFQCVQREIKPHMRKMLAYWMLEVCEEQRCEEEVFPLAMNYLDRYLSCVPTRKAQLQLLGAVCMLLASKLRETTPLTIEKLCIYTDHAVSPRQLRDWEVLVLGKLKWDLAAVIAHDFLAFILHRLSLPRDRQALVKKHAQTFLALCATDYTFAMYPPSMIATGSIGAAVQGLGACSMSGDELTELLAGITGTEVDCLRACQEQIEAALRESLREASQTSSSPAPKAPRGSSSQGPSQTSTPTDVTAIHLASKGGGGSLEVLFQPSRMATSRYEPVAEIGVGAYGTVYKARDPHSGHFVALKSVRVPNGGGGGGGLPISTVREVALLRRLEAFEHPNVVRLMDVCATSRTDREIKVTLVFEHVDQDLRTYLDKAPPPGLPAETIKDLMRQFLRGLDFLHANCIVHRDLKPENILVTSGGTVKLADFGLARIYSYQMALTPVVVTLWYRAPEVLLQSTYATPVDMWSVGCIFAEMFRRKPLFCGNSEADQLGKIFDLIGLPPEDDWPRDVSLPRGAFPPRGPRPVQSVVPEMEESGAQLLLEMLTFNPHKRISAFRALQHSYLHKDEGNPE
- Rb kinase activity of the immobilized fusion protein [2]: No difference in Rb-kinase activity
- Rb kinase activity of the immobilized fusion protein ([2]; listed as cyclin D3/CDK4): active
- Rb kinase activity of the immobilized fusion protein ([3]; 16 h after serum/insulin/β-estradiol stimulation of MCF7 cells (FIG. 11B, lane 8)): strongly enhanced
- Rb kinase activity of the immobilized fusion protein ([3]; quiescent MCF7 cells (FIG. 11B, lane 7)): detectable

B2: D3L3K4: cyclin D3 and CDK4 connected by the Prescission-cleavable linker L3, SEQ ID NO. 79 (protein)
chain: B1 chain
- Rb kinase activity of the immobilized fusion protein [2]: No difference in Rb-kinase activity
- Rb kinase activity of the immobilized fusion protein ([3]; stable MCF7 populations cultivated with 5% serum and insulin (FIG. 16)): only detected
